Experimental findings from PMC8018780, “Two peptides targeting endothelial receptors are internalized into murine brain endothelial cells” (PLoS ONE, 2021) are described below.

The assay addresses recombinant mouse transferrin receptor (TfR) protein (mouse) (UniProt Q62351). The assay can be described thus: SPR; Biacore 3000, CM5 chip, receptors immobilised by EDC/NHS coupling (TfR 58 fmol/mm^2, LRP-1 0.025 fmol/mm^2); peptides injected at 0.25-4 uM, 5 uL/min, 25°C, 10 mM HEPES, 150 mM NaCl, 1.5 mM CaCl2, 1 mM EGTA, 0.005% Tween 20, pH 7.4; Langmuir 1:1 model, global fit. (Surface plasmon resonance follows binding to a sensor surface in real time, without labels.)

Ends that are not written are not given here.

Chain of recombinant mouse transferrin receptor (TfR) protein (mouse) (Q62351 whole entry): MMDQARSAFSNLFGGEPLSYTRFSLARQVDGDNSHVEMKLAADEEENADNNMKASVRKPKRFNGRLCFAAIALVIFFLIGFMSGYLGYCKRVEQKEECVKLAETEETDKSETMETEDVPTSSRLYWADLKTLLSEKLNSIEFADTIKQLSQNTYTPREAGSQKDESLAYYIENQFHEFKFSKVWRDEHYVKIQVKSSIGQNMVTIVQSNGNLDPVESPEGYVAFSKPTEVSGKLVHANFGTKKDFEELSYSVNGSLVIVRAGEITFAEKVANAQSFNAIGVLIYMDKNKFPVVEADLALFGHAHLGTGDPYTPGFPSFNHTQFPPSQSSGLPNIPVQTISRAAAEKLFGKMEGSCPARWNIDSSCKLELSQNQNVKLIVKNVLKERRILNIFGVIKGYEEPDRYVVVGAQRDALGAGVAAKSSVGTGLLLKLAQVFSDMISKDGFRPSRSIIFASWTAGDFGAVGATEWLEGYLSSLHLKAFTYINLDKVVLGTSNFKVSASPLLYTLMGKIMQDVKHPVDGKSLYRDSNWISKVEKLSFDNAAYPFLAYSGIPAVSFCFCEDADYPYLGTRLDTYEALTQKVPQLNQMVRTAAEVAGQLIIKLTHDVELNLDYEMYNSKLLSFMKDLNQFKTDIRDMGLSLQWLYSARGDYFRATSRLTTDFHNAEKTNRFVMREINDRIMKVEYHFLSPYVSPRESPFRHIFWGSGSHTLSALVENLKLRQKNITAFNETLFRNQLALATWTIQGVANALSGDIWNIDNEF

B1: GYR (peptide 2) (peptide)
peptide: GYRPVHNIRGHWAPGK-NH2
Broadly, the Kd is a measure of binding affinity in units of concentration. Take B1: the Kd worked out at 1000 µM.
